{"source": "the nanobody polyreactivity screen of Harvey et al. (2022)"}
{"experiment": "yeast display, Sf9 membrane polyspecificity reagent, FACS + sequencing; frameworks hold sequencing errors", "how_it_was_run": "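In a synthetic yeast display library (Saccharomyces cerevisiae BJ5465), nanobody expression was induced with galactose for 36–48 hours. FACS gates were set low and high (top ~1%) using anti-HA fluorescence for expression and streptavidin fluorescence for binding of the Sf9 membrane reagent. Each polyreactivity label is drawn from the gate of origin.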"}
{"sequence": "QVQLVESGGGLVQAGGSLRLSCAASGFNIYNNAMAWYRQAPGKERELVAAITSNGGRTYYADSVKGRFTISRDNAKNTFYLQMNSLKPEDTAVYYCAVDLYVWNVHYYYWGQGTQVTVSS", "polyreactivity (PSR sort gate)": "high polyreactivity"}
{"sequence": "QVQLVESGGGLVQAGGSLRLSCAASGRTFERNTMRWYRQAPGKERELVAAISYDGGSTYYADSVKGRFTISRDNAKNTVYFQLNSLKPEDRAVYYCNAGGSEIYRSPFDYWGQGTQVTVSS", "polyreactivity (PSR sort gate)": "low polyreactivity"}
{"sequence": "QVQLVESGGGLVQAGGSLRLSCAASGSIFRGNAMGWYRQAPGKERELVAAITYNDGGTYYADSVKGRFTISRDNAKNTVYLQMNSLKPEDTAVYYCAAVGTGNKSILYDYWGQGTQVTVSS", "polyreactivity (PSR sort gate)": "low polyreactivity"}
{"sequence": "QVQLVESGGGLVQAGGSLRLSCAASGSIFDWNSMGWYRQAPGKERELVATISWDGGSTYYADSVKGRFTISLDNAKNTVYLQMNSLKPEDTAVYYCATVFTGKPAYYARTKYDYWGQGTQVTVSS", "polyreactivity (PSR sort gate)": "low polyreactivity"}
{"sequence": "QVQLVESGGGLVQAGGSLRLSCAASGGIFGSYAMGWYRQAPGKERELVAAISWRGGSTYYADSVKGRFTISRDNAKNTVYLQMNSLKPEDTAVYYCAARYRWGYSTSYSYRFDYWGQGTQVTVSS", "polyreactivity (PSR sort gate)": "high polyreactivity"}
{"sequence": "QVQLVESGGGLVQAGGSLRLSCAASGRTFSYYAMGWYRQAPGKERELVAAITSGGGRTYYADSVKGRFTISRDNAKNTVYLQMNSLKPEDTAVYYCNALSTLYNGYDYWGQGTQVTVSS", "polyreactivity (PSR sort gate)": "high polyreactivity"}
{"sequence": "QVQLVESGGGLVKAGGSLRLSCAASGSTYQTYAMGWYRHAPGKERELVAAISFNGGSTYYADSVKGRFTISRDNAKNTVYLQMNSLKPEDTAVYYCAVEYTWASALYDGRHDYWGQGTQVTVSS", "polyreactivity (PSR sort gate)": "high polyreactivity"}
{"sequence": "QVQLVESGGGLVQAGGSLRLSCAASGRIFGSYAMGWYRQAPGKERELVASITSSGGSTYYADSVKGRFTISRDNAKNTVYLQMNSLKPEDTAVYYCAAGCAYLDAFYPYGYWGQGTQVTVSS", "polyreactivity (PSR sort gate)": "low polyreactivity"}
{"sequence": "QVQLVESGGGLVQAGGSLRLSCAASGRILGYYAMGWYRQAPGKERDLVAAISRAGSTNYADSVKGRFTISRDNAKNTVYLQMNSLKAEDTAVYYCAARPYRRGYNYWGQGTQVTVSS", "polyreactivity (PSR sort gate)": "high polyreactivity"}
{"sequence": "QVQLVESGGGLVQAGGSLRLICAASGITFRRYGMGWYRQAPGKERELVATITSSVGSRTYYADSVKGRLTISRDNAKNTVYLQMNSLKPEDTAVYYCAADHRVYDYEYWGQGTQVTVSS", "polyreactivity (PSR sort gate)": "low polyreactivity"}
{"sequence": "QVHLVESGGGLVQAGGSLRLSCAASGSTFSGNGMGWYRQAPGKERELVAAINWYGGTTYYADSVKGRFTISRDNAKNTVYLQMNSLKQEDTAVYYCARESTLTYYSDDFDYWGQGTQVTVSS", "polyreactivity (PSR sort gate)": "low polyreactivity"}
{"sequence": "QVQLVESGGGLVQAGGSLRLSCAASGFTFGNSALGWYRLAAGKERELVAAISRSGGRTYYADSVKGSFTISRDNAKNTVYLQMNSLKPEVTAVYYCARLLLSPQYGYWGQGTQVTVSS", "polyreactivity (PSR sort gate)": "high polyreactivity"}
{"sequence": "QVQLVESGGGLVQAGGSLRLSCAASGRIFGVYAMGWYRQAPGKERELVAAIYSGSTTYYADSVKGRFTISRDNAKNTVYVQMNSLKPEDTAVYYCAAVSRDDNYQDYYSWGQGTQVTGSS", "polyreactivity (PSR sort gate)": "low polyreactivity"}
{"sequence": "QDQIVESGGGYDQAGGSLRLTCAASGRIFRGNDMGSYRQAPGKERELVASISGTGGRTYYADSVKGRFTISRDNAKNTVYLQMNSLKPEDPAVYYCAVRTSLWGYYYWGHGTQVTVSS", "polyreactivity (PSR sort gate)": "high polyreactivity"}
{"sequence": "QVQLVESGGGLVQAGGSLRLSCAASGRIFLRNAMGWYRPAPGKERELVAGISSIGGITYYADSVKGRFTISRDNAKNTVYLQMNILKPEDTAVYYCAKGLYLHTSGHGPYDYWGQGTQVTVSS", "polyreactivity (PSR sort gate)": "low polyreactivity"}
{"sequence": "QVQLDESGGGLVQAGGSLRLSCADSGRIFDRNALGWYRQAPGKESELVAAISSRGTSTYYADSVKGRFTISRDNAKNTVYLQMNSLKPEDTAVYYCAARPRYASDEFGYWGQGTQVTVSS", "polyreactivity (PSR sort gate)": "low polyreactivity"}
{"sequence": "KVHLVESGGGLVQAGGSLRLSCPAAGFTLDQYAMGWYRQAPGKEMELVAVITSGVNTYYADSVKGRFTISRDNAKNTVYLQMNSLKPEDTAVYYCAKDVCDPFYDPFEYWGQGTQVTVSS", "polyreactivity (PSR sort gate)": "low polyreactivity"}
{"sequence": "QVQLVESGGGLVQAGGSLRLSCAASGYTFTGYAMGWYRQAPGKERELVAAISWNGGSTFYADSVKGRFTISRDNAKNTVYLQMNSLKPEDTAVYYCATPRKLAYSPKLDYWGQGTQVTVSS", "polyreactivity (PSR sort gate)": "low polyreactivity"}
{"sequence": "QVQLVESGGGLVQAGGRLRLSCAASGLIFPAYAMGWYRQAPGKERELVATITWRGGSTYYADSVKGRFTISRDNAKNTVYLQMNSLKPEDTAVDYCATRPRYYYFRYDYWGQGTQVTVSS", "polyreactivity (PSR sort gate)": "high polyreactivity"}
{"sequence": "QVQLVESGGGLVQAGGSLRLSCAASGSIFNYYDMGWYRQAPGKERELVAAIDLTGGTTYYADSVKGRFTISRDNAKNTVYLQMNSLKPEDTAVYYCAAQYIRSSWWGYDYWGQGTQVTVSS", "polyreactivity (PSR sort gate)": "low polyreactivity"}
{"sequence": "QVQLVESGGGLVQAGGSLRLSCAASGRIFRAYAMGWYRQAPGKERELVAAITSGVSTNYADSVKGRFTISRDNAKNTVYLQMNSLKPEDTAVYYCAVLGKRNAYYYWGQGTQVTVSS", "polyreactivity (PSR sort gate)": "low polyreactivity"}
{"sequence": "QVQLVESGGGLVQAGGSLRLSCAACGSTFLYYAMGWYRQAPGKERELVAGISWDGTSTYYADSVKGRFTISRDNAKNSVYLQMNSLKPEDTAVYYCAAFGWSRVYHWRFEWGQGTQVTVSS", "polyreactivity (PSR sort gate)": "low polyreactivity"}
{"sequence": "QVQLVESGGGLVQAGGSLRLSCAASGGIFWHYTMGWYRQAPGKERELVAAITRRGGSTYYADSVKGRFTISRDNAKNTVYLQMNSLKPEDTSVYYGAAVFEWTSRGSYYRYYYWGQGTQVTVSS", "polyreactivity (PSR sort gate)": "low polyreactivity"}
{"sequence": "QVQLVESGGGLVHAGGSHRLSCAASGTMGCYRQAPGKEMELVAAISQSGGSTYYADSVKGRFTISRDNAKNTVYLQMNSLKPEATAVYYCAVDPRYGHPRRDYWGQGTQVTVSS", "polyreactivity (PSR sort gate)": "low polyreactivity"}
{"sequence": "QVQLVESGGGLVQAGGILRLSCAASGSIFYRNAMGWYRQAPGKERELVAAISARGGRTNYADSVKGRFTISRDNAKYTVYLQMNSLKPEDTAVYYCNTADSWYHRSQAYDYWGQGTQVTVSS", "polyreactivity (PSR sort gate)": "high polyreactivity"}
{"sequence": "QVQLVESGGGLVQAGGSLRLSCAAAGSIFGDYVMGWYRQAPGKERELVPANTSATSTYYADSVKGRFTISRDNAKNTVYLQMNSLKPEDTAVYYCNADATYPLWPNIWYDYDYWGQGTQVTVSS", "polyreactivity (PSR sort gate)": "low polyreactivity"}
{"sequence": "QVQLVESGGGLVQAGGSLRLICAASGTISSLNTMGWYRQAPVKERELVASITWSGGSTYADSVKGRFTISRDNAKNTVYLQMNSLKPEDTAVYYCAKGVWFSRRRYGYWGQGTQVTVSS", "polyreactivity (PSR sort gate)": "high polyreactivity"}
{"sequence": "QVQLEESGGGLVQAGGSLRLSCAASGRISESNDRGWYRQAPGKERQLVAAISSSGGSTYYADSVKGRFTISRDTAKNTVYLQLNSLKPEDTAVYYCAREYIFSVYDYSTSYYYWGQGTQVTVSS", "polyreactivity (PSR sort gate)": "low polyreactivity"}
{"sequence": "QVQLVESVGGLVQAGGSLRLICAASGSIFSRYAMGWYRQAPGKEREFVARITQRGGSTYYADSVKGRFTISRDNAKNTVYLQRQSLKPEDTAVYYCNADHYRRLLAEDYWGQGTQVTVSS", "polyreactivity (PSR sort gate)": "low polyreactivity"}
{"sequence": "QVQLVESGVGLVQAGGSLRLICAASGSTFQPNVMGWYRQAPGKERELDAAIRGSSGNTYYADSVKGRFTISRDHAKNTVYLQMNSLKPEDTAVYYCAALFLFKTSSPYRYYYWGQGTQVTVSS", "polyreactivity (PSR sort gate)": "high polyreactivity"}
{"sequence": "QVQLVESGGGLVQAGGSLRLSCAASGRIFFLYAMGWYRQAPGKERELVASITRRGGSTYYADSVKGRFTISRDNAKNTVYLQMNSLKPEDTAVYYCAAELYRSNVYHYDYWGQGTQVTVSS", "polyreactivity (PSR sort gate)": "high polyreactivity"}
{"sequence": "QVQLVESGGGLVQARGSLRLSSAASGRTFHYNAMGWYRQAPGKERELVAAISFNGGGTYYADSVKGRFTISRDNAKNTVYLQMNCLKTEDTAVYYCATDVPSRYDYWGQGTQVTVSS", "polyreactivity (PSR sort gate)": "low polyreactivity"}
{"sequence": "QVQLVESGGGLVQAGGSLRLSCAASGSIFWNAMGWNKQAPGKERELVAAISWSGTRTYYADSVKGRFTISRDNAKNTVYLQMNSLKPEDTAVYYCNAVQWNAYYYWGQGTQVTVSS", "polyreactivity (PSR sort gate)": "high polyreactivity"}
{"sequence": "QVQLVESGGGLVQAGGSLRLSCAASGRTFRENAMGSSRPAPGKERELVAAIRRSGGRTYYADSVKGRFTISRDNAKNTVYLQMHSLKPEDTAVSDCIAVADGYAFRRPYVTYYYWGQGTQVTVSS", "polyreactivity (PSR sort gate)": "low polyreactivity"}
{"sequence": "QVQLVESGGGLVQAGGSLRLSCAASGRIFPSYAMGWYRQAPGKERELVATISSGGRTYYADSVKGRFTISRDNAKNTVYLQMNSLKPEDTEVYYCNADRTQDRNPYTYATFDYWGQGTQVTVSS", "polyreactivity (PSR sort gate)": "low polyreactivity"}
{"sequence": "QVQLVESGGGLVQAGGSLRLSCAASGFTSTLNDMGWYRQAPGKERELVAAISNGGSTYYADSVKGRFTISRDNAKNTVYLQMNSLKPEDTAVYYCAVTATAPQEGDYWGQGTQVTVSS", "polyreactivity (PSR sort gate)": "low polyreactivity"}
{"sequence": "QVQLVESGGGLVQAGGSLRLSCAASGSTFRFYGMGWYRQAPGKERELVAAITYRSGITYADSGKGGFSISRDNANNTVYLLMNSLKPEETAVYYCAARARRYTDEYDYWGQGTQVTVSS", "polyreactivity (PSR sort gate)": "low polyreactivity"}
{"sequence": "QVQLVESGGGLVQAGGSLRLSCAASGSIFYRNAMGWYRQAPGKERELVAAITRSDGRTYYADSVKGRFTISRDNAKNTVYLQMNSLKPEDTAVYYCNADHPFPQYEGGSWGQGTQVTVSS", "polyreactivity (PSR sort gate)": "low polyreactivity"}
{"sequence": "QVQLVESGGGLVQAGGSLRLSCAASGFTFIPNAMGWYRQATGKERELVAAISTGGSTYYADSVKGRFTISRDNAKNTVSLQMNSLKPEDTAVYYCAAGILDLKLYFSSYDYWGQGTQVTVSS", "polyreactivity (PSR sort gate)": "low polyreactivity"}
{"sequence": "QVQLVESGGGLVQAGGSLRFSCAASGRTIWTYVMGWYRQAPGKERELVAAISRSGSSTYYADSVKGRFTISRDNAKNTVYLQMNSLKPEDTAVYYCNKVDGTTLDDHYMDYWGQGTQVTVAS", "polyreactivity (PSR sort gate)": "low polyreactivity"}
{"sequence": "QVQLVESGGGLVQAGGSLRLSCAASGRTFADNAMGWYRQAPGKERELVASISSGTSTNYADSVKGRFTISRDNAKNTVYLQMNSLKPEDTAVYYCNAYGPIWYTAVLGVGRYYGWTDYWGQGTQVTVSS", "polyreactivity (PSR sort gate)": "low polyreactivity"}
